{"source": "paper PMC8125067", "binders": {"B1": {"name": "endogenous IRF3 of HEK293T cells, Q14653 1-427 (natural protein)", "chain": "MGTPKPRILPWLVSQLDLGQLEGVAWVNKSRTRFRIPWKHGLRQDAQQEDFGIFQAWAEATGAYVPGRDKPDLPTWKRNFRSALNRKEGLRLAEDRSKDPHDPHKIYEFVNSGVGDFSQPDTSPDTNGGGSTSDTQEDILDELLGNMVLAPLPDPGPPSLAVAPEPCPQPLRSPSLDNPTPFPNLGPSENPLKRLLVPGEEWEFEVTAFYRGRQVFQQTISCPEGLRLVGSEVGDRTLPGWPVTLPDPGMSLTDRGVMSYVRHVLSCLGGGLALWRAGQWLWAQRLGHCHTYWAVSEELLPNSGHGPDGEVPKDKEGGVFDLGPFIVDLITFTEGSGRSPRYALWFCVGESWPQDQPWTKRLVMVKVVPTCLRALVEMARVGGASSLENTVDLHISNSHPLSLTSDQYKAYLQDLVEGMDFQGPGES"}}, "target": "T1, endogenous IRF3 of HEK293T cells (human (endogenous in HEK293T)), Q14653", "T1 chain": "B1 chain", "assay": "native gel or EMSA; IRF3 dimer gel: lysate of HEK293T transfected 36 h with or without MDA5 and VP3; native PAGE, 25 mM Tris-HCl, 192 mM glycine, pH 8.4, 1% deoxycholate in the cathode chamber; blot with anti-IRF3", "conditions": "remark: other sources report otherwise"}
{"binder": "B1", "values": [{"measurement": "stoichiometry N", "result": 2}]}
